In patent US20220306751A1 (MYTHIC THERAPEUTICS, published 2022):

T1: CD123 Protein, His Tag, Acro Biosciences Cat. No. ILA-H52H6 (Homo sapiens (Human), UniProt P26951 19-305)
T1 construct: Bought protein; not shown: His tag
T1 sequence: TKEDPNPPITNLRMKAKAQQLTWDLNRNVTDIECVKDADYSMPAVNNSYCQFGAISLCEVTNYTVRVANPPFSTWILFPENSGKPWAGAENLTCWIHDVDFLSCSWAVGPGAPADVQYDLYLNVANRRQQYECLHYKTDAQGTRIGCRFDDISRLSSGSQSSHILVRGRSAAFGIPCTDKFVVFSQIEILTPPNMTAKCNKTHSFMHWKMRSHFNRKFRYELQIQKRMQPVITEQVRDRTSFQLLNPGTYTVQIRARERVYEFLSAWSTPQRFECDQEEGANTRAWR


Biological target: T1, CD123 Protein, His Tag, Acro …
Assay: BLI, IgG on anti-human Fc sensor, 50 nM CD123, pH 7.4 and pH 5.4
Excerpt: We selected IMGN632 (Heavy chain SEQ ID NO: 1, Light chain SEQ ID NO: 2) as a CD123-binding monoclonal antibody for pH engineering via histidine scanning. Briefly, CDRs in the heavy chain were identified using the methods described by Kabat et al (Kabat et al. (1992) Sequences of Proteins of Immunological Interest, DIANE publishing) and IMGT (Lefranc M P (1999) “The IMGT unique numbering for Immunoglobulins, T cell receptors and Ig-like domains” The Immunologist 7, 132-136), and for each CDR, residues falling under either or both Kabat and IMGT CDR definitions were called as CDR residues. To generate pH-dependent sequence variants, individual amino acid residues within the heavy chain CDRs were systematically substituted with a histidine, one at a time (MYT1252-MYT1292). In cases where the starting CDR residue was a histidine, it was mutated to an alanine. Antibody variants with only one histidine or alanine mutation in a heavy chain CDR were generated by co-transfection of Expi293 cells with a) one heavy chain sequence variant, and b) the corresponding starting ABPC light chain using methods known to the art. After allowing for four days of protein expression, cell culture supernatants were collected, quantified by SDS-PAGE analysis (FIG. 1), and the pH dependence of the variant was evaluated using biolayer interferometry (BLI) on an Octet RED 384 instrument. For constructs MYT1252, MYT1254-MYT1287, and MYT1289-1292, 104, of cell culture supernatant was diluted into 1904, of 1× PBST pH 7.4. For MYT1253 and MYT1288 254, and 504, of cell culture supernatant was diluted into 1754, and 1504, respectively. […] The resulting diluted supernatants were then captured on an anti-human Fc sensor (Forte Bio). A baseline was established using 1× PBST (50 mM Potassium Phosphate Buffer+150 mM NaCl+0.05% Tween 20) pH 7.4, and the sensor was associated with 50 nM of CD123 (CD123 Protein, His Tag, Acro Biosciences Cat. No. ILA-H52H6, Lot No. 1741d-89CF1-KB) in 1×PBST pH 7.4 for 120 sec to generate an association curve. In the dissociation phase, the antibody-antigen complex on the sensor was exposed to 1× PBST pH 7.4 for 300-600 sec. Baseline, association, and dissociation were repeated using 1×PBST pH 5.4 throughout in a separate condition.

| Binder | binding result |
| --- | --- |
| MYT1287 (antibody, V domains shown, IgG) VH: QVQLVQSGAEVKKPGASVKVSCKASGYIFTSSIMHWVRQAPGQGLEWIGYIKPYNDGTKYNEKFKGRATLTSDRSTSTAYMELSSLRSEDTAVYYCAREGGNDYHDTMDYWGQGTLVTVSS VL: DIQMTQSPSSLSASVGDRVTITCRASQDINSYLSWFQQKPGKAPKTLIYRVNRLVDGVPSRFSGSGSGNDYTLTISSLQPEDFATYYCLQYDAFPYTFGQGTKVEIK | binds |
| MYT1288 (antibody, V domains shown, IgG) VH: QVQLVQSGAEVKKPGASVKVSCKASGYIFTSSIMHWVRQAPGQGLEWIGYIKPYNDGTKYNEKFKGRATLTSDRSTSTAYMELSSLRSEDTAVYYCAREGGNDYYHTMDYWGQGTLVTVSS VL: DIQMTQSPSSLSASVGDRVTITCRASQDINSYLSWFQQKPGKAPKTLIYRVNRLVDGVPSRFSGSGSGNDYTLTISSLQPEDFATYYCLQYDAFPYTFGQGTKVEIK | binds |
| MYT1289 (antibody, V domains shown, IgG) VH: QVQLVQSGAEVKKPGASVKVSCKASGYIFTSSIMHWVRQAPGQGLEWIGYIKPYNDGTKYNEKFKGRATLTSDRSTSTAYMELSSLRSEDTAVYYCAREGGNDYYDHMDYWGQGTLVTVSS VL: DIQMTQSPSSLSASVGDRVTITCRASQDINSYLSWFQQKPGKAPKTLIYRVNRLVDGVPSRFSGSGSGNDYTLTISSLQPEDFATYYCLQYDAFPYTFGQGTKVEIK | binds |
| MYT1290 (antibody, V domains shown, IgG) VH: QVQLVQSGAEVKKPGASVKVSCKASGYIFTSSIMHWVRQAPGQGLEWIGYIKPYNDGTKYNEKFKGRATLTSDRSTSTAYMELSSLRSEDTAVYYCAREGGNDYYDTHDYWGQGTLVTVSS VL: DIQMTQSPSSLSASVGDRVTITCRASQDINSYLSWFQQKPGKAPKTLIYRVNRLVDGVPSRFSGSGSGNDYTLTISSLQPEDFATYYCLQYDAFPYTFGQGTKVEIK | binds |
| MYT1291 (antibody, V domains shown, IgG) VH: QVQLVQSGAEVKKPGASVKVSCKASGYIFTSSIMHWVRQAPGQGLEWIGYIKPYNDGTKYNEKFKGRATLTSDRSTSTAYMELSSLRSEDTAVYYCAREGGNDYYDTMHYWGQGTLVTVSS VL: DIQMTQSPSSLSASVGDRVTITCRASQDINSYLSWFQQKPGKAPKTLIYRVNRLVDGVPSRFSGSGSGNDYTLTISSLQPEDFATYYCLQYDAFPYTFGQGTKVEIK | binds |
| MYT1292 (antibody, V domains shown, IgG) VH: QVQLVQSGAEVKKPGASVKVSCKASGYIFTSSIMHWVRQAPGQGLEWIGYIKPYNDGTKYNEKFKGRATLTSDRSTSTAYMELSSLRSEDTAVYYCAREGGNDYYDTMDHWGQGTLVTVSS VL: DIQMTQSPSSLSASVGDRVTITCRASQDINSYLSWFQQKPGKAPKTLIYRVNRLVDGVPSRFSGSGSGNDYTLTISSLQPEDFATYYCLQYDAFPYTFGQGTKVEIK | binds |
| MYT2753 (antibody, V domains shown, IgG) VH: QVQLVQSGAEVKKPGASVKVSCKASGHIFTSSIMAWVRQAPGQGLEWIGYIKPYNDGTKYNEKFKGRATLTSDRSTSTAYMELSSLRSEDTAVYYCAREGGNDYYDTMDYWGQGTLVTVSS VL: DIQMTQSPSSLSASVGDRVTITCRASQDINSYLSWFQQKPGKAPKTLIYRVNRLVDGVPSRFSGSGSGNDYTLTISSLQPEDFATYYCLQYDAFPYTFGQGTKVEIK | binds |
| MYT2754 (antibody, V domains shown, IgG) VH: QVQLVQSGAEVKKPGASVKVSCKASGHIFTSSIMHWVRQAPGQGLEWIGYIKPYNDGTKYNEKFKGRATLTSDRSTSTAYMELSSLRSEDTAVYYCAREGGNDYHDTMDYWGQGTLVTVSS VL: DIQMTQSPSSLSASVGDRVTITCRASQDINSYLSWFQQKPGKAPKTLIYRVNRLVDGVPSRFSGSGSGNDYTLTISSLQPEDFATYYCLQYDAFPYTFGQGTKVEIK | binds |
| MYT2755 (antibody, V domains shown, IgG) VH: QVQLVQSGAEVKKPGASVKVSCKASGHIFTSSIMHWVRQAPGQGLEWIGYIKPYNDGTKYNEKFKGRATLTSDRSTSTAYMELSSLRSEDTAVYYCAREGGNDYYDHMDYWGQGTLVTVSS VL: DIQMTQSPSSLSASVGDRVTITCRASQDINSYLSWFQQKPGKAPKTLIYRVNRLVDGVPSRFSGSGSGNDYTLTISSLQPEDFATYYCLQYDAFPYTFGQGTKVEIK | binds |
| MYT2756 (antibody, V domains shown, IgG) VH: QVQLVQSGAEVKKPGASVKVSCKASGHIFTSSIMHWVRQAPGQGLEWIGYIKPYNDGTKYNEKFKGRATLTSDRSTSTAYMELSSLRSEDTAVYYCAREGGNDYYDTMHYWGQGTLVTVSS VL: DIQMTQSPSSLSASVGDRVTITCRASQDINSYLSWFQQKPGKAPKTLIYRVNRLVDGVPSRFSGSGSGNDYTLTISSLQPEDFATYYCLQYDAFPYTFGQGTKVEIK | binds |
| MYT2757 (antibody, V domains shown, IgG) VH: QVQLVQSGAEVKKPGASVKVSCKASGYIFTSSIMAWVRQAPGQGLEWIGYIKPYNDGTKYNEKFKGRATLTSDRSTSTAYMELSSLRSEDTAVYYCAREGGNDYHDTMDYWGQGTLVTVSS VL: DIQMTQSPSSLSASVGDRVTITCRASQDINSYLSWFQQKPGKAPKTLIYRVNRLVDGVPSRFSGSGSGNDYTLTISSLQPEDFATYYCLQYDAFPYTFGQGTKVEIK | binds |
| MYT2759 (antibody, V domains shown, IgG) VH: QVQLVQSGAEVKKPGASVKVSCKASGYIFTSSIMAWVRQAPGQGLEWIGYIKPYNDGTKYNEKFKGRATLTSDRSTSTAYMELSSLRSEDTAVYYCAREGGNDYYDTMHYWGQGTLVTVSS VL: DIQMTQSPSSLSASVGDRVTITCRASQDINSYLSWFQQKPGKAPKTLIYRVNRLVDGVPSRFSGSGSGNDYTLTISSLQPEDFATYYCLQYDAFPYTFGQGTKVEIK | binds |
| MYT2760 (antibody, V domains shown, IgG) VH: QVQLVQSGAEVKKPGASVKVSCKASGYIFTSSIMHWVRQAPGQGLEWIGYIKPYNDGTKYNEKFKGRATLTSDRSTSTAYMELSSLRSEDTAVYYCAREGGNDYHDHMDYWGQGTLVTVSS VL: DIQMTQSPSSLSASVGDRVTITCRASQDINSYLSWFQQKPGKAPKTLIYRVNRLVDGVPSRFSGSGSGNDYTLTISSLQPEDFATYYCLQYDAFPYTFGQGTKVEIK | binds |
| MYT2761 (antibody, V domains shown, IgG) VH: QVQLVQSGAEVKKPGASVKVSCKASGYIFTSSIMHWVRQAPGQGLEWIGYIKPYNDGTKYNEKFKGRATLTSDRSTSTAYMELSSLRSEDTAVYYCAREGGNDYHDTMHYWGQGTLVTVSS VL: DIQMTQSPSSLSASVGDRVTITCRASQDINSYLSWFQQKPGKAPKTLIYRVNRLVDGVPSRFSGSGSGNDYTLTISSLQPEDFATYYCLQYDAFPYTFGQGTKVEIK | binds |
| MYT2762 (antibody, V domains shown, IgG) VH: QVQLVQSGAEVKKPGASVKVSCKASGYIFTSSIMHWVRQAPGQGLEWIGYIKPYNDGTKYNEKFKGRATLTSDRSTSTAYMELSSLRSEDTAVYYCAREGGNDYYDHMHYWGQGTLVTVSS VL: DIQMTQSPSSLSASVGDRVTITCRASQDINSYLSWFQQKPGKAPKTLIYRVNRLVDGVPSRFSGSGSGNDYTLTISSLQPEDFATYYCLQYDAFPYTFGQGTKVEIK | binds |
| MYT2763 (antibody, V domains shown, IgG) VH: QVQLVQSGAEVKKPGASVKVSCKASGHIFTSSIMAWVRQAPGQGLEWIGYIKPYNDGTKYNEKFKGRATLTSDRSTSTAYMELSSLRSEDTAVYYCAREGGNDYHDTMDYWGQGTLVTVSS VL: DIQMTQSPSSLSASVGDRVTITCRASQDINSYLSWFQQKPGKAPKTLIYRVNRLVDGVPSRFSGSGSGNDYTLTISSLQPEDFATYYCLQYDAFPYTFGQGTKVEIK | binds |
| MYT2764 (antibody, V domains shown, IgG) VH: QVQLVQSGAEVKKPGASVKVSCKASGHIFTSSIMAWVRQAPGQGLEWIGYIKPYNDGTKYNEKFKGRATLTSDRSTSTAYMELSSLRSEDTAVYYCAREGGNDYYDHMDYWGQGTLVTVSS VL: DIQMTQSPSSLSASVGDRVTITCRASQDINSYLSWFQQKPGKAPKTLIYRVNRLVDGVPSRFSGSGSGNDYTLTISSLQPEDFATYYCLQYDAFPYTFGQGTKVEIK | binds |
